Experimental data as given in patent US20110045046A1.
Where no end group is shown, it is not given here. Side-chain parts run from the residue outwards.

T1: H-2K^b class I MHC molecule (mouse)
T1 chain 1: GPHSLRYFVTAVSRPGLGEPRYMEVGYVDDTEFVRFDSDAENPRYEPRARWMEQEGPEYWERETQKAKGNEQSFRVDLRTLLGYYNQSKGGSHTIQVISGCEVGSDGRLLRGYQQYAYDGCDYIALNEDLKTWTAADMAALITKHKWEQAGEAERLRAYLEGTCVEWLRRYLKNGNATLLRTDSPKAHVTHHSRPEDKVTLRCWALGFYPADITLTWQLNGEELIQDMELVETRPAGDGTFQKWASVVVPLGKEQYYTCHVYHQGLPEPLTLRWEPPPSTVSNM
T1 chain 2: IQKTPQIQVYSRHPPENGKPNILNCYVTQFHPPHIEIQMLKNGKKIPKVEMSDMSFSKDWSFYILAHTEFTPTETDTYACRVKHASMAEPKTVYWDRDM


How the values were obtained:
HLA-A*0201 (human) [1] = assay: MHC binding assay with purified MHC molecules
HLA-A*0202 (human) = assay: MHC binding assay with purified MHC molecules
HLA-A*0203 (human) [2] = assay: MHC binding assay with purified MHC molecules
HLA-A*0206 (human) = assay: MHC binding assay with purified MHC molecules
HLA-A*0201 (human) [3] = assay: inhibition of binding of a radioiodinated peptide to the MHC molecule (50% inhibition; column headed KD)
HLA-A*0203 (human) [4] = assay: as above
[5] = target: T1, H-2K^b class I MHC molecule (mouse); assay: K^b binding capacity

Binder	IC50 (HLA-A*0201 (human) [1]) [µM]	IC50 (HLA-A*0202 (human)) [µM]	IC50 (HLA-A*0203 (human) [2]) [µM]	IC50 (HLA-A*0206 (human)) [µM]	also measured
TLTSCNTSV (modifications not checked) [TLT(GalNAc-O-S)CNTSV]	0.00072	0.015	0.0082	0.024	
TLTSCNTSV (modifications not checked)	0.00029	0.0081	0.013	0.015	
ALASAAAAV (modifications not checked) [ALA(GALNAc-O-S)SAAAAV]				0.081	
ALASAAAAV (modifications not checked)				0.266	
LLLLTVLTV (modifications not checked) [LLLL(Tn-T)LTV]					Kd (HLA-A*0201 (human) [3]): 1.3 µM; Kd (HLA-A*0203 (human) [4]): 4.29 µM
AIIAS([GalNAc-Gal])FAAL [AIIA(β-Gal-[1->3]-α-GalNAc-O-serine)FAAL]					IC50 [5]: 0.007 µM
